Data on 4 sequences can be found in the supplement of paper PMC5998384.

For data set [1], the system named is HeLa Kyoto. Briefly: thermal stability score vs G1/S (z-score of summed log2 fold changes over temperatures); higher = more thermally stable than in G1/S.
For data set [2], the system named is HeLa Kyoto. The experiment in a line: solubility in G1/S (NP-40 vs SDS abundance) (log2 ratio); higher = more soluble. As to conditions: cell cycle stage: G1/S.
The test system of data set [3] is HeLa Kyoto. The experiment in a line: melting temperature (median over replicates), in situ; higher = more thermally stable.
Data set [4] concerns HeLa Kyoto. Briefly: solubility change mitosis vs G1/S (difference of NP-40 vs SDS log2 ratios) (log2 ratio difference); higher = more soluble in mitosis.
[5] abbreviates: cell cycle stage: early G1 (4.5 h after nocodazole release).
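Throughout, for melting temperature (median over replicates), in situ: HeLa Kyoto cells synchronized by double thymidine or nocodazole block, proteins quantified by TMT10plex mass spectrometry, three independent biological replicates.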
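Throughout, for solubility change mitosis vs G1/S (difference of NP-40 vs SDS log2 ratios): synchronized HeLa Kyoto cells (double thymidine block for G1/S, nocodazole release for mitosis), protein amounts in NP-40 versus SDS lysates quantified by mass spectrometry, three biological replicates.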
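Throughout, for solubility in G1/S (NP-40 vs SDS abundance): HeLa Kyoto cells arrested at G1/S by double thymidine block, proteins quantified by TMT10plex mass spectrometry in mild NP-40 versus SDS extracts, three biological replicates.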
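Throughout, for thermal stability score vs G1/S (z-score of summed log2 fold changes over temperatures): synchronized HeLa Kyoto cells, proteins quantified by TMT10plex mass spectrometry, three biological replicates, mitosis taken 0.5 h after nocodazole release, G1/S directly after double thymidine block.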

Consider “MLVHLFRVGIRGGPFPGRLLPPLRFQTFSAVRNTWRNGKTGQLHKAEGEYSDGYRSSSLLRAVAHLRSQLWAHLPRAPLAPRWSPSAWCWVGGALLGPMVLSKHPHLCLVALCEAEEAPPASSTPHVVGSRFNWKLFWQFLHPHLLVLGVAVVLALGAALVNVQIPLLLGQLVEVVAKYTRDHVGSFMTESQNLSTHLLILYGVQGLLTFGYLVLLSHVGERMAVDMRRALFSSLLRQDITFFDANKTGQLVSRLTTDVQEFKSSFKLVISQGLRSCTQVAGCLVSLSMLSTRLTLLLMVATPALMGVGTLMGSGLRKLSRQCQEQIARAMGVADEALGNVRTVRAFAMEQREEERYGAELEACRCRAEELGRGIALFQGLSNIAFNCMVLGTLFIGGSLVAGQQLTGGDLMSFLVASQTVQRSMANLSVLFGQVVRGLSAGARVFEYMALNPCIPLSGGCCVPKEQLRGSVTFQNVCFSYPCRPGFEVLKDFTLTLPPGKIVALVGQSGGGKTTVASLLERFYDPTAGVVMLDGRDLRTLDPSWLRGQVVGFISQEPVLFGTTIMENIRFGKLEASDEEVYTAAREANAHEFITSFPEGYNTVVGERGTTLSGGQKQRLAIARALIKQPTVLILDEATSALDAESERVVQEALDRASAGRTVLVIAHRLSTVRGAHCIVVMADGRVWEAGTHEELLKKGGLYAELIRRQALDAPRTAAPPPKKPEGPRSHQHKS [ABCB8]”, for which the thermal stability score in data set [1] (setting [5]) was 0.49; in data set [1] (cell cycle stage: mitosis), -0.355. In data set [2], the “solubility in G1/S (log2)” value was -0.36. The sequence also showed a melting temperature in data set [3] (cell cycle stage: G1/S) of 51.1 °C. The “solubility change mitosis (log2)” value in data set [4] came to 0.155.
As for “MLVLFETSVGYAIFKVLNEKKLQEVDSLWKEFETPEKANKIVKLKHFEKFQDTAEALAAFTALMEGKINKQLKKVLKKIVKEAHEPLAVADAKLGGVIKEKLNLSCIHSPVVNELMRGIRSQMDGLIPGVEPREMAAMCLGLAHSLSRYRLKFSADKVDTMIVQAISLLDDLDKELNNYIMRCREWYGWHFPELGKIISDNLTYCKCLQKVGDRKNYASAKLSELLPEEVEAEVKAAAEISMGTEVSEEDICNILHLCTQVIEISEYRTQLYEYLQNRMMAIAPNVTVMVGELVGARLIAHAGSLLNLAKHAASTVQILGAEKALFRALKSRRDTPKYGLIYHASLVGQTSPKHKGKISRMLAAKTVLAIRYDAFGEDSSSAMGVENRAKLEARLRTLEDRGIRKISGTGKALAKTEKYEHKSEVKTYDPSGDSTLPTCSKKRKIEQVDKEDEITEKKAKKAKIKVKVEEEEEEKVAEEEETSVKKKKKRGKKKHIKEEPLSEEEPCTSTAIASPEKKKKKKKKRENED [NOP58]”, the thermal stability score in data set [1] (setting [5]) was -0.671; in data set [1] (cell cycle stage: mitosis), -1.23. In addition, in data set [2], the “solubility in G1/S (log2)” value was -1.64. Further, the melting temperature in data set [3] (cell cycle stage: G1/S) was 52.5 °C; in data set [3] (cell cycle stage: mitosis), 51.5 °C. The “solubility change mitosis (log2)” value in data set [4] came to 1.07.
Take “MLWSGCRRFGARLGCLPGGLRVLVQTGHRSLTSCIDPSMGLNEEQKEFQKVAFDFAAREMAPNMAEWDQKELFPVDVMRKAAQLGFGGVYIQTDVGGSGLSRLDTSVIFEALATGCTSTTAYISIHNMCAWMIDSFGNEEQRHKFCPPLCTMEKFASYCLTEPGSGSDAASLLTSAKKQGDHYILNGSKAFISGAGESDIYVVMCRTGGPGPKGISCIVVEKGTPGLSFGKKEKKVGWNSQPTRAVIFEDCAVPVANRIGSEGQGFLIAVRGLNGGRINIASCSLGAAHASVILTRDHLNVRKQFGEPLASNQYLQFTLADMATRLVAARLMVRNAAVALQEERKDAVALCSMAKLFATDECFAICNQALQMHGGYGYLKDYAVQQYVRDSRVHQILEGSNEVMRILISRSLLQE [ACAD8]”: the values for the thermal stability score in data set [1] (setting [5]) and in data set [1] (cell cycle stage: mitosis) were -0.89 and -3.82, respectively. Further, in data set [2], the “solubility in G1/S (log2)” value was -0.0509. In addition, the melting temperature is 54.9 °C in data set [3] (cell cycle stage: G1/S) and 55.2 °C in data set [3] (cell cycle stage: mitosis). Moreover, the “solubility change mitosis (log2)” value in data set [4] is -0.0672.
Take “MMAIRELKVCLLGDTGVGKSSIVCRFVQDHFDHNISPTIGASFMTKTVPCGNELHKFLIWDTAGQERFHSLAPMYYRGSAAAVIVYDITKQDSFYTLKKWVKELKEHGPENIVMAIAGNKCDLSDIREVPLKDAKEYAESIGAIVVETSAKNAINIEELFQGISRQIPPLDPHENGNNGTIKVEKPTMQASRRCC [RAB31]”: the thermal stability score in data set [1] (setting [5]) is -1.38; in data set [1] (cell cycle stage: mitosis), -0.537. Further, in data set [2], the “solubility in G1/S (log2)” value is -0.166. The melting temperature in data set [3] (cell cycle stage: G1/S) stood at 54.6 °C; in data set [3] (cell cycle stage: mitosis), 53.9 °C. Moreover, the “solubility change mitosis (log2)” value in data set [4] is 0.0123.
